Assay results: IntAct's records for PubMed 20923837

How the values were obtained:
tbcd5_human TBC1D5 = tbcd5_human TBC1D5 (UniProt Q92609)
vps35_mouse Vps35 = vps35_mouse Vps35 (UniProt Q9EQH3)

effect of a mutation on the interaction (tbcd5_human TBC1D5): disrupting interaction strength | effect of a mutation on the interaction (vps35_mouse Vps35): with no effect
Substance: Vacuolar protein sorting-associated protein 29 (Mus musculus) (from UniProt Q9QZ88) L152E
